From article doi:10.1101/296517 (bioRxiv, 2018)
Values joined by “and” are separate entries in the source; they are usually repeats but may differ in a detail not shown here. Equal entries are not always repeated.

How the values were obtained:
[1] = target: the molecule itself; experiment: Western blot
[2] = target: the molecule itself; experiment: Western blot of lysates

B1: Rab6a GTPase (natural protein, human (endogenous in LNCaP), UniProt P20340 1-208, looked up)
chain: MSTGGDFGNPLRKFKLVFLGEQSVGKTSLITRFMYDSFDNTYQATIGIDFLSKTMYLEDRTVRLQLWDTAGQERFRSLIPSYIRDSTVAVVVYDITNVNSFQQTTKWIDDVRTERGSDVIIMLVGNKTDLADKRQVSIEEGERKAKELNVMFIETSAKAGYNVKQLFRRVAAALPGMESTQDRSREDMIDIKLEKPQEQPVSEGGCSC
With B1 the “stoichiometry N” value [1] was 2.

B2: GRASP65 (natural protein)
chain: not shown
With B2 the “stoichiometry N” value [2] was 2 and 4.
